The results in this text go back to patent US20150176059.

Where two headings read alike, the source gives them in different places.

Series [1] relates to Z05-D DNA polymerase (Thermus sp. Z05?). Particulars: SYBR Green melting, 50 mM Tris pH 8.0, 100 mM KCl, 2.5 mM MgCl2.
Series [2] deals with Z05 DNA polymerase (Thermus sp. Z05?). Description: inhibition. Particulars: KRAS PCR, 60 C, 10x excess, no UNG, 20 nM Z05, 3 mM MgCl2.

In series [1] (aptamer Tm 60.7 C with 20 nM Z05-D vs 59.0 C without), “CGATCATCTCAGAACATTCTTAGCGTTTTGTTCTTGTGTATGATCG [U0 (NTQ21-46A)]” yielded a binding of 1.7 °C. Besides, the activity in series [2] (no-target Ct 32.0 vs 25.7 without aptamer) turned out to be 32 Ct.
On to “CGATCATCTCAGAACATTCTTAGCGTTTUGUUCUUGTGTATGATCG [U2]”, for which the binding in series [1] (dU replacing dT at positions shown as u (medium dU content), aptamer Tm 59.5 C with 20 nM Z05-D vs 57.9 C without) was 1.6 °C. The same sequence showed an activity in series [2] (dU replacing dT at positions shown as u (medium dU content), no-target Ct 31.2 vs 25.7 without aptamer) of 31.2 Ct.
Take “CGAUCAUCTCAGAACATTCTTAGCGTTTTGTTCTTGTGTAUGAUCG [U1]”: the binding in series [1] (dU replacing dT at positions shown as u (low dU content), aptamer Tm 58.4 C with 20 nM Z05-D vs 56.8 C without) came to 1.6 °C. In series [2] (dU replacing dT at positions shown as u (low dU content), no-target Ct 31.7 vs 25.7 without aptamer), this sequence displayed an activity of 31.7 Ct.
The sequence “CGAUCAUCTCAGAACATTCTTAGCGTTTUGUUCUUGTGTAUGAUCG [U3]” showed a binding in series [1] (dU replacing dT at positions shown as u (high dU content), aptamer Tm 57.6 C with 20 nM Z05-D vs 55.6 C without) of 2 °C. This sequence also had an activity in series [2] (dU replacing dT at positions shown as u (high dU content), no-target Ct 30.8 vs 25.7 without aptamer) of 30.8 Ct.
